Here are results for 1 molecule from article PMC3276697 (Traffic (Copenhagen, Denmark), 2012).

The assay deals with T1, Vps4(E233Q), the ATP-locked form of Vps4 (S. cerevisiae, UniProt P52917 1-437, E233Q).
T1 sequence (looked up): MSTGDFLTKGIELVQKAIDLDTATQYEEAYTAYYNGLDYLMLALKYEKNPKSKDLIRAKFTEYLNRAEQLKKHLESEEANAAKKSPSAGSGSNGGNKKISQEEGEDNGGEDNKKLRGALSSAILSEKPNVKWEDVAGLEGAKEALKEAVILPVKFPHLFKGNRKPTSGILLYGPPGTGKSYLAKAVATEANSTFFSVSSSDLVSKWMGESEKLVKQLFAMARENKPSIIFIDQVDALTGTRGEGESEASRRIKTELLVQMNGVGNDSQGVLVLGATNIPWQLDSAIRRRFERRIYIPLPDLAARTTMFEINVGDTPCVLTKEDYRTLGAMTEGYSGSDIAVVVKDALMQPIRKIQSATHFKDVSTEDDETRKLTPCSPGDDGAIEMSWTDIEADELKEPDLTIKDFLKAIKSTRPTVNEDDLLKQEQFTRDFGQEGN
Description: pull-down.

B1: GST-Did2(CT) (amino acids 113-204), the C-terminal half of Did2 (domain or fragment, S. cerevisiae, UniProt P69771 113-204, looked up)
chain: QQITMIMDKFEQQFEDLDTSVNVYEDMGVNSDAMLVDNDKVDELMSKVADENGMELKQSAKLDNVPEIKAKEVNVDDEKEDKLAQRLRALRG
As for B1, the binding result is on record as “binds”.
